In the DeepSol protein solubility set:

Assay: soluble on expression in E. coli; label from the status in PepcDB or PDB records

Sequence	soluble on expression in E. coli
MFQVQKELASHEAVVVALFEEEKTSSFVQELDKAFEGQLQVLLEEKELSTKKKAISKVHSLGKTDVKRYYFVGLGKKESYTTETLRSALGKTFKTLQAAKVQDAAILLDSFVTEKLDAIDVAHIAAEVQGLGTYELQTYKSDKKDRVELEKFTAITAEDAQEIEAALTVGYVHGRATNSARTLVNMPPNVLTATKLAEYAVELAEKYDMDYKVLEKEEMEELGMGALLAVNQGSVEPPKMIALIYKGKEEWTDVIGFVGKGITYDTGGYSLKPREGMVGMKGDMGGAAAVLGAMEIIGELRPEQNVIAVIPSTDNVVSGTAFKPDDVITSMSGKTIEVLNTDAEGRLALADGITYAKKLGANYLIDVATLTGGVIVALGNHTTGAMTNNEELFEQVLEASMETDESIWQLPIFDRDKERVRNSKFADLNNSPGREGHAVMAGTFIGEFAEDTPWVHLDIAGTSESSGAHDLGPAGATGAMVRTLATLVERFGEE	not soluble
MMKFDWNNPYPSTRIPVFARNVVATSHPLAAQAGLRILALGGNAADAAVASAATLALVEPASNGLGSDCFALVWDGARLHGLNASGTAPAAWSPGYFQRKHQGAIPLRGWDSVTIPGCVAGWASLHDKLGSLPFADVLAPAIEYAERGFAVPPTVQRRWADQVDPLRSLPGFAEHFLPHGRAPEVGEHFVLAGAAATLRRIAASGGRDFYEGETAQKLVAHAQAHEAALTLGDLRDYAPQWVEPISQAYRGHALHQLPPNGQGLAALIALGIVEHFDLASRPAEHPDTQHILIEAMKLAFADVHAHVADAAHIRIRVEQLLDPAYLAERARLIDLRRARVYNAAQAPQGGTVYLACADRNGMMVSFTQSNYMGFGSGIVVPGTGISLQNRGCCFSMDPDHPNVVGGGKRPFHTGIPAFLTQDGAPLMSFGIMGGNMQPQGHLQALVRMLDYRQQPQAACDAPRWKWNRGLSVDIEAAMPAQVTDALRARGHIVEVAAPADKDFGSGQFIWRLGDPAVDGYVAASDSRRDGLAAGFLEHHHHHH	not soluble
MGSDKIHHHHHHMKNVLILSSSPRRGGNSDTLCDEFMQGAIESGHRVEKVFLRDKTIHPCTGCGVCSQYKKPCPQKDDAAEIIGKMLAADVIVMATPVYFYAMSAQMKTLIDRCCGPYTEMKNKEFYFIATAAEEDNGIMDRIVANFMGFLDCLENPTVKGTLFCGGVWHVGEIEGNPTLRQAYEQGKRV	not soluble
MYVCLCHAITDTQIKNAVSQGDTSLADVKKRLGVADQCGKCARMAVQIIQNQLEIEPKYYEVA	soluble
MVTEDVRATADDIADMEIRGAATIARAAADALESQATDSDADSPAAFRAELRAAARHLRDTRPTAVSLPNALRYVLGNTDGETVAALRASVTDAADAFRQQLDRAQDDLGAIGANRLRDGDTVMTHCHSTDALACVKAALDDGKHIEAVVKETRPRKQGHITADQLREWGVPVTLIVDNAGRRYLDAVDHVLVGADSIAADGSVINKIGTSMLAVVARERGVPVMVAAQTLKLHPDTLTGNTVEIEMRDETEVLAAADRHQLGAPDVENPAFDVTPPRYVDAIVTERGQFPPESIVTLMRELYGDGTTEPWAEDLEHHHHHH	not soluble
RTEVVAVALDTSLEELKGRFVESGISKIIVYDGNIDNVVGYIHSSEMFRSPKDWRNHVKEVPIVPETMAAHKLMKLFMQQKKTIAVVVDEFGGTSGIVSLEDLVEEIFGDIEDEHDNTSYICKQIGE	not soluble
MGSDKIHHHHHHMKGEETLKKALLNIGKESPFYYYVLLGVKLVPSKNTRNLKLSFSTTGDVMLLYNPEAIGKKPLRMVQALLIHEVMHIVLQHFRIKPKDERDRKIWDLAMDAAINQYIPELAAFGVPLDVLVKEGHTTDNDTLFVLPPEWMMFENAEMYHKWILEEMERLGRYDVEVVAEFRDNVDDHSGLFEEDVPVEMILDLTKDRTKKAFNLFGNTLPSGVRREVSLSLENPELDWKTLLRRFFGVSIKADRYTTPLRPNRRYDHLPGWRNEYLPRIAAVVDTSGSIVEKELNQFISELEKISNIAGEELWLVQVDKSVTSAMKYRSGKWKDLEIVGGGSTDLQPAIDYSERVLRSEGTVVFTDGHTDVPIARRRILFVLSRYHNEEFLKEARKMYGRDAVVVLS	not soluble
MEASKYVGQGFQPPAEKDAVEFAKKHKDKIAKRGEQFFMDNFGLKVKATNVVGSGDGVEVFVHCDDHDIVFNASIPFDKSIIDSDSSLRSEDKGDDMSTLVGTVLSGFEYRAQKEKYDNLYKFFKENEKKYQYTGFTKEAINKTQNSGYENEYFYIVANIPTLQEYRKYYEPLIKKNNLNFKKGMKQARKGVGYKAAIEVHTTLFSRSSNFSKDKKLDDVIDLSESTKKLHLNFENTKIFLQLAKSTISTNRVNYSDNESIRIEVELEHHHHHH	not soluble
